This note sets out measurements from paper PMC7506995 (EMBO Molecular Medicine, 2020).

Like-named read-outs stand apart in the source and are kept apart here.

In assay [1] the target is T1, full-length recombinant mouse PrP (recPrP23-231) (Mus musculus, UniProt P04925).
T1 construct: source: recombinant, produced as described (Lysek & Wuthrich, 2004)
Briefly: ELISA. The note with it: both partners purified. Background: An ELISA detects its analyte on a solid surface through an enzyme-linked reagent.

For assay [2], the target named is T2, human recPrP_(23-230) (Homo sapiens, UniProt P04156).
The target in assay [3] is T3, peptide P17 (Mus musculus).
T3 chain: TWGQPHGGGWGQ
Briefly: co-IP. The note with it: both partners purified.

For assay [4], the target named is T4, full-length recombinant mouse PrP (recPrP_(23-231)) (Mus musculus, UniProt P04925).
T4 construct: source: recombinant, produced as described (Lysek & Wuthrich, 2004)
Briefly: SPR; […]; 25°C; 10 mM Tris/HCl pH 8.5, 500 mM NaCl, 3 mM EDTA, 0.05% Tween-20; 1:1 Langmuir fit; ProteOn XPR36. The note with it: both partners purified. In general terms: Surface plasmon resonance follows binding to a sensor surface in real time, without labels.

Assay [5] addresses T1, full-length recombinant mouse PrP …. Briefly: ELISA. The note with it: both partners purified. The source holds these as a separate data set.
In assay [6] the target is T2, human recPrP_(23-230). Briefly: ELISA. The note with it: both partners purified.

B1: Fab44 (Fab, V domains shown)
VH: QVQLVESGGGVVQPGRSLRLSCAASGFTFSSYGMHWVRQAPGKGLEWVAVISYEGSNKYYADSVKGRFTISRDNSKNTLYLQMNSLRAEDTAVYYCARVAYAVGSSYRSSSYSPGFDVWGQGTLVTVSS
VL: not shown
notes: source: E. coli BL21(DE3), purified (IMAC)
As for B1, the binding result in assay [1] was “binds”.

B2: BB_VH3-33 (antibody, V domains shown)
VH: QVQLVESGGGVVQPGRSLRLSCAASGFTFSSYGMHWVRQAPGKGLEWVAVIWYDGSNKYYADSVKGRFTISRDNSKNTLYLQMNSLRAEDTAVYYCAREHSYGGYFDYWGQGTLVTVSS
VL: not shown
As to B2, in assay [2], the binding result is “binds”.

B3: Fab71 (Fab, V domains shown)
VH: QVQLVESGGGVVQPGRSLRLSCAASGFTFSSYGMHWVRQAPGKGLEWVAVISYEGSNKYYADSVKGRFTISRDNSKNTLYLQMNSLRAEDTAVYYCARHVSYGGYFDYWGQGTLVTVSS
VL: not shown
notes: also called anti-OR_(51-91) Fab71; source: E. coli BL21(DE3), pPE2 vector, purified by IMAC (Ni-NTA)
For orientation: Kd means the free concentration of one partner at which half of the binding sites on the other are occupied at equilibrium, for simple one-to-one binding. One may read the koff as the first-order rate constant of dissociation. On to B3, for which, in assay [3], the binding result is given as “binds”. For the same molecule, in assay [4], the Kd amounted to 0.0062 µM and the koff stood at 0.00245 s⁻¹.

B4: Fab71 (Fab, V domains shown)
VH: QVQLVESGGGVVQPGRSLRLSCAASGFTFSSYGMHWVRQAPGKGLEWVAVISYEGSNKYYADSVKGRFTISRDNSKNTLYLQMNSLRAEDTAVYYCARHVSYGGYFDYWGQGTLVTVSS
VL: not shown
notes: as for B1
Broadly, the EC50 is the concentration giving half of the maximal effect. On to B4, for which the EC50 in assay [5] was determined as 0.0249 µM.

B5: BB_VH3-21 (antibody, V domains shown)
VH: EVQLVESGGGLVKPGGSLRLSCAASGFTFSSYSMNWVRQAPGKGLEWVSSISSSSSYIYYADSVKGRFTISRDNAKNSLYLQMNSLRAEDTAVYYCARVSYGGYFDYWGQGTLVTVSS
VL: not shown
On to B5, for which the binding result in assay [2] is recorded as “binds”.

B6: DK_VH3-07 Fab (Fab, V domains shown)
VH: EVQLVESGGGLVQPGGSLRLSCAASGFTFSSYWMSWVRQAPGKGLEWVANIKQDGSEKYYVDSVKGRFTISRDNAKNSLYLQMNSLRAEDTAVYYCARSYGGYFDYWGQGTLVTVSS
VL: QSALTQPASVSGSPGQSITISCTGTSSDVGGYNYVSWYQQHPGKAPKLMIYEVSNRPSGVSNRFSGSKSGNTASLTISGLQAEDEADYYCTSYTSSSTHVVFGGGTKLTVL
notes: source: expressed in bacteria (pPE2 vector), purified
Take B6: in assay [6], a half-maximal effect (EC50) was put at 62.8 µM and the binding result is listed as “no binding (tested: Fabs tested starting from 3 μM)”.

B7: BB_VH3-66 (antibody, V domains shown)
VH: EVQLVESGGGLVQPGGSLRLSCAASGFTVSSNYMSWVRQAPGKGLEWVSVIYSGGSTYYADSVKGRFTISRDNSKNTLYLQMNSLRAEDTAVYYCARSGSYGGYFDYWGQGTLVTVSS
VL: not shown
B7: in assay [2], the binding result was “binds”.

B8: DW_VH3-53 (antibody, V domains shown)
VH: EVQLVETGGGLIQPGGSLRLSCAASGFTVSSNYMSWVRQAPGKGLEWVSVIYSGGSTYYADSVKGRFTISRDNSKNTLYLQMNSLRAEDTAVYYCARVSYGGYYFDYWGQGTLVTVSS
VL: not shown
Take B8: the binding result in assay [2] is on record as “binds”.

B9: Fab13 (Fab, V domains shown)
VH: QVQLVESGGGVVQPGRSLRLSCAASGFTFSSYGMHWVRQAPGKGLEWVAVISYEGSNKYYADSVKGRFTISRDNSKNTLYLQMNSLRAEDTAVYYCARVWSPDGYPGFDYWGQGTLVTVSS
VL: not shown
notes: as for B1
On to B9, for which the binding result in assay [1] is reported as “binds”.

B10: Fab8 (Fab, V domains shown)
VH: QVQLVESGGGVVQPGRSLRLSCAASGFTFSSYGMHWVRQAPGKGLEWVAVISYEGSNKYYADSVKGRFTISRDNSKNTLYLQMNSLRAEDTAVYYCARHYGGRLDYWGQGTLVTVSS
VL: not shown
notes: as for B1
Take B10: in assay [1], the binding result is “binds”.

B11: Fab12 (Fab, V domains shown)
VH: QVQLVESGGGVVQPGRSLRLSCAASGFTFSSYGMHWVRQAPGKGLEWVAVISYEGSNKYYADSVKGRFTISRDNSKNTLYLQMNSLRAEDTAVYYCARHYGGQLDYWGQGTLVTVSS
VL: not shown
notes: as for B1
On to B11, for which the binding result in assay [1] is recorded as “binds”.

B12: Fab10 (Fab, V domains shown)
VH: QVQLVESGGGVVQPGRSLRLSCAASGFTFSSYGMHWVRQAPGKGLEWVAVISYEGSNKYYADSVKGRFTISRDNSKNTLYLQMNSLRAEDTAVYYCARHYGGWFDYWGQGTLVTVSS
VL: not shown
notes: as for B1
Take B12: the binding result in assay [1] was “binds”.

B13: Fab69 (Fab, V domains shown)
VH: QVQLVESGGGVVQPGRSLRLSCAASGFTFSSYGMHWVRQAPGKGLEWVAVISYEGSNKYYADSVKGRFTISRDNSKNTLYLQMNSLRAEDTAVYYCARVHPGVHYRPGGFDYWGQGTLVTVSS
VL: not shown
notes: as for B1
With B13, the binding result in assay [1] is reported as “binds”.

B14: Fab53 (Fab, V domains shown)
VH: QVQLVESGGGVVQPGRSLRLSCAASGFTFSSYGMHWVRQAPGKGLEWVAVISYEGSNKYYADSVKGRFTISRDNSKNTLYLQMNSLRAEDTAVYYCARVYVYRSYRHSSGYGYPGFDVWGQGTLVTVSS
VL: not shown
notes: as for B1
As to B14, in assay [1], the binding result was “binds”.

B15: Fab61 (Fab, V domains shown)
VH: QVQLVESGGGVVQPGRSLRLSCAASGFTFSSYGMHWVRQAPGKGLEWVAVISYEGSNKYYADSVKGRFTISRDNSKNTLYLQMNSLRAEDTAVYYCARVYPYPYVYAESDGSYPGFDVWGQGTLVTVSS
VL: not shown
notes: as for B1
B15: in assay [1], the binding result was “binds”.
